Km data for one protein are collected here from publication PMC9040739, “Entamoeba histolytica EHD1 Is Involved in Mitosome-Endosome Contact” (mBio, 2022).

Substrate in this data set: Nc1ncnc2c1ncn2[C@@H]1O[C@H](COP(=O)(O)OP(=O)(O)OP(=O)(O)O)[C@@H](O)[C@H]1O
Kind of data set: coupled fluorescent ADP assay (ADP-hexokinase/G6PDH/diaphorase/resazurin). Format: biochemical, Entamoeba histolytica. The settings on record: MgCl2, pH 7.5, 37°C, 12.5-2,500 μM ATP.

B1: His-EHD1 (Entamoeba histolytica HM-1:IMSS) (protein)
chain: MFGKKKQKPQMDTSYVSVIDGVKKIYDEKIKKLEADYKYDYLVSPLMRQADFEAKPMVLFLGQYSTGKTTFINYLLNYDYPGSHIGPEPTTDGFMAIMHGPNSTNIPGNTLCVQSDKPFTSLSKFGNEFMAKFNGSFCNLPLLEHLTFIDSPGVLSGEKQRIGRSYDFNEVVRWFAERADMIVLVFDAHKLDISDEFKGVIEAVKKHSEKMRLVLNKADSIDSQQLMRVYGALMWSLGKVMQTPECLRVYVSSFWDQPFKESLFTGLFEKERDDLMYDLHALPKQATVRKVNELCKRARLAKANAYITSYLREQMPTFGKDKKKAELLKDLNTVFNTVMKRYNLAAGDFPPIDVYKDRLQNCDFSKFPKLDMRVINAVDDALGTQIPLLLKKFPMEDDLSTHTNPFEVASNFEKCCITLDVSEDEMNSYQKEFDKLPKNEVGKVLGKDCFAPLMASGADKKDLQKIWSIADSGKEGALNAHQYILAKALVRTLLQSGGYPDNLPPVE
notes: full length (ORF primers start to stop), N-terminal His tag (pColdI), tag kept; E. coli BL21, Ni-NTA; native mass 58 kDa
For the protein B1, the Km was 94.91 ± 16.63 µM.
